Results from article PMC3164674.

Target: MUC1 (mucin 1) on the surface of MCF-7 cells (human (MCF-7 breast cancer cell line)) (UniProt P15941)
Assay: flow cytometry on cells
Conditions: 300 nM DNA; 5 mM Mg2+; MUC1+ MCF-7 vs MUC1- HepG2; S2.2 with 48-nt DNA spacer at 3' end; 100 mM NaCl, 5 mM MgCl2, pH 7.2, 300 nM DNA, 30 min; temperature not stated

Sequence of UniProt P15941 (P15941 whole entry): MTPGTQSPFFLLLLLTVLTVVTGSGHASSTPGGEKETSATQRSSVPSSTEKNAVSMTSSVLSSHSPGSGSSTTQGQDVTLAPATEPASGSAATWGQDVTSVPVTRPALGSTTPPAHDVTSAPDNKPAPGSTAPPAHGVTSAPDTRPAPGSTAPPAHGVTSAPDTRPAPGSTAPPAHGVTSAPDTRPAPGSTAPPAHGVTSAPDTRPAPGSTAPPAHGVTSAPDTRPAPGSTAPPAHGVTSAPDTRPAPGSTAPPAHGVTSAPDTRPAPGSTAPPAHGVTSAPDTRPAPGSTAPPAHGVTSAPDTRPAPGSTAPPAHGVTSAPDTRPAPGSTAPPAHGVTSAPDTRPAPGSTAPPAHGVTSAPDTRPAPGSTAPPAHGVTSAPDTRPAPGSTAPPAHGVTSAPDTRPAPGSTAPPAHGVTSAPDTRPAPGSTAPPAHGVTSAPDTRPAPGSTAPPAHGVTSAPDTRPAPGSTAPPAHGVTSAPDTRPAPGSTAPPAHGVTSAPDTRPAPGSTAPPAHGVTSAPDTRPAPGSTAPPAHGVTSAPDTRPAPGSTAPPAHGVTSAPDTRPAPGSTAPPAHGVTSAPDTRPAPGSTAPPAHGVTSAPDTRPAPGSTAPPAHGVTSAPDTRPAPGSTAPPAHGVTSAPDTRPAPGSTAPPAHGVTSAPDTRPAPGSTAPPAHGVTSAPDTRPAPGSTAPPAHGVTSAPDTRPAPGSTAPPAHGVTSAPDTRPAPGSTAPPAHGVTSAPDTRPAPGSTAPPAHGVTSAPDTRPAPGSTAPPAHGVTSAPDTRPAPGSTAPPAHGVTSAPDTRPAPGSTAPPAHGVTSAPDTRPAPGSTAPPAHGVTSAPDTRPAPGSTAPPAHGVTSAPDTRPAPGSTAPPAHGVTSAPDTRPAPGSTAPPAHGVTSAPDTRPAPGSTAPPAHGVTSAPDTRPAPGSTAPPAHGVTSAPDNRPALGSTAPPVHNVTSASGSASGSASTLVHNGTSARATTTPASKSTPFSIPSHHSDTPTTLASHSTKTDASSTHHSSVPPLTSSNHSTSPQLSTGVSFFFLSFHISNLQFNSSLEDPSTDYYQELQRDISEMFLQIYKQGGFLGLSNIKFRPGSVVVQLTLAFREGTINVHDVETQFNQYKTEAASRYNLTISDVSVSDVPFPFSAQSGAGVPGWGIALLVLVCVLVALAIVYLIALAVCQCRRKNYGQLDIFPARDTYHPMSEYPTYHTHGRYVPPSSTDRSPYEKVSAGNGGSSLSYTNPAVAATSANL

Sequence: GCAGTTGATCCTTTGGATACCCTGGTTCCCTTCCTTCTCTCTTCCTCTCTCCTTCTCTCTTCCTCTCTCCTTC [S2.2-spacer]
- binding signal (fold (mean fluorescence MCF-7/HepG2)): 3.5
